What was measured:
[1] = system: tyrosine hydroxylase (TH); test: TH activity (DOPA levels after NSD-1015) in N27 cells; format: cell-based, rat; conditions: 2 mM NSD-1015, rottlerin 3 hr vs DMSO, PKCδ-DN vs LacZ
Method: Plasmid pPKCδ^K376R-V5 encodes the loss of function PKCδ-V5 epitope tagged mutant protein; K376R refers to the mutation of the lysine residue at position 376 to arginine in the catalytic site resulting in inactivation of the kinase. Plasmid pLacZ-V5 encodes the β-galactosidase protein alone with a V5-epitope and is used as a vector control. N27 cells stably expressing PKCδ^K376R-V5 (herein referred to as PKCδ-DN cells) and LacZ alone-expressing cells (LacZ cells) were cultured as described previously (Kitazawa et al., 2005). PKCδ-DN or LacZ expressing N27 cells were identified by immunostaining of the C-terminal V5 epitope on expressed proteins and were differentiated with cAMP analogs (e.g. dibutyral cAMP) prior to experiments. PKCδ-DN and LacZ were also transiently expressed in mouse primary mesencephalic neurons using an AMAXA® Nucleofector™ kit (AMAXA GmbH, Germany). As described above, primary mesencephalic neurons were prepared from the midbrain of 16-18-day-old mice embryos. After digestion with trypsin-EDTA-HBSS, the primary neurons were homogenously resuspended with transfection buffer provided with the kit to a final concentration of 4-5×10^6 neurons/100 μl and mixed with 1 μg plasmid DNA encoding either PKCδ-DN-V5 or LacZ-V5. […] Transfection efficiency was >75% as determined by immunostaining of V5-expression. […]

PP2A = PP2A phosphatase activity in N27 cells (Serine/Threonine phosphatase assay kit); format: cell-based, rat; conditions: rottlerin vs DMSO, PKCδ-DN vs LacZ
Method: To determine PP2A phosphatase activity, we used the Serine/Threonine phosphatase assay kit from Promega. Briefly, N27 cells and substantia nigral tissue from mouse brain were homogenized in lysis buffer (25 mM Tris-HCl, 10 mM β-mercaptoethanol, 2 mM EDTA, protease inhibitor) supplied with the kit. After centrifugation, the supernatants were used for the assay. PP2A activity was determined by measuring the amount of free phosphate generated in a reaction by measuring the absorbance of a molybdate:malachite green: phosphate complex at 600 nm using the Spectramax plate reader (Molecular Devices). The effective range for the detection of phosphate released in this assay is 100-4,000 pmol of phosphate.

N27 cells = test: Cellular DA and DOPAC levels in N27 cells (HPLC-EC); format: cell-based, rat; conditions: N27 cells; rottlerin vs vehicle, PKCδ-DN vs LacZ
Method: (§1) PC12 cells, differentiated N27 dopaminergic cells and primary mesencephalic neurons were exposed to 1-10 μM rottlerin for the duration of the experiment. DMSO (0.01%) was used as vehicle control. PKCδ-DN- and Lac Z-expressing N27 cells were only treated with 0.01% DMSO. […] Untreated or vehicle treated cells were used as control samples.
DA and DOPAC levels in PC12, N27 cells and in brain striatal tissues were determined by high-performance liquid chromatography with electrochemical detection (HPLC-EC); samples were prepared as described previously (Kitazawa et al., 2001). The DA and DOPAC levels were measured as pg/mg protein and expressed as percent of control.

[2] = system: tyrosine hydroxylase (TH); test: TH phosphorylation in N27 cells (Western blot, immunofluorescence); format: cell-based, rat
Method: as §1
Cell and brain lysates containing equal amounts of protein were loaded in each lane and separated on a 10-12% SDS-PAGE gel as described previously (Kaul et al., 2003). After the separation, proteins were transferred to nitrocellulose membrane, and nonspecific binding sites were blocked by treating with 5% nonfat dry milk powder. The membranes were then treated with primary antibodies directed against PKCδ (rabbit polyclonal or mouse monoclonal, 1:2000 dilution), TH (rabbit polyclonal or mouse monoclonal, 1:1000), phospho TH-ser40 (rabbit polyclonal, 1:1000), phospho TH-ser31 TH (rabbit polyclonal, 1:1000), or PP2A (mouse monoclonal, 1:1000). The primary antibody treatments were followed by treatment with secondary HRP-conjugated anti-rabbit or anti-mouse IgG (1:2000) for 1 hr at RT. Secondary antibody-bound proteins were detected using Amersham's ECL chemiluminescence kit. To confirm equal protein loading, blots were reprobed with a β-actin antibody (1:5000 dilution). Western blot images were captured with a Kodak 2000 MM imaging system and data were analyzed using 1D Kodak imaging analysis software.
Immunostaining of PKCδ, TH, Ser40 P-TH and Ser31 P-TH was performed in PC12, N27 and primary mesencephalic neurons. Cells were grown on poly-L-Lysine-coated glass cover slips. After treatment, the cells were fixed with 4% paraformaldehyde and processed for immunohistochemical staining. […] Then the coverslips containing stained cells were washed with PBS, mounted on a slide, and viewed under a Nikon inverted fluorescence microscope (Model TE-2000U); images were captured with a SPOT digital camera (Diagnostic Instruments, Sterling Heights, Mich.).

[3] = system: tyrosine hydroxylase (TH); test: TH-ser40 phosphorylation in primary mesencephalic neurons (immunofluorescence); format: cell-based, mouse; conditions: primary neurons, 24 hr post-transfection
Method: PC12 and N27 cells were cultured as described earlier (Anantharam et al., 2002; Kaul et al., 2003). Briefly, cells were grown in RPMI 1640 medium containing 10% fetal bovine serum, 2 mM L-glutamine, 50 units of penicillin, and 50 μg/ml streptomycin. Cells were maintained in a humidified atmosphere of 5% CO2 at 37° C. N27 cells were differentiated with 2 mM dibutyryl cAMP for 3-5 days and then used for experiments described below. Primary mesencephalic neuronal cultures were prepared from the ventral mesencephalon of gestational 16-18-day-old mice embryos as described previously (Yang et al., 2004). Mesencephalic tissues were dissected and maintained in ice-cold Ca^2+-free HESS and then dissociated in HBSS solution containing trypsin-EDTA (0.25%) for 20 min at 37° C. The dissociated cells were then plated at equal density (0.5×10^6 cells) in 30-mm-diameter tissue culture wells precoated with poly-L-lysine (1 mg/ml). […]
Plasmid pPKCδ^K376R-V5 encodes the loss of function PKCδ-V5 epitope tagged mutant protein; K376R refers to the mutation of the lysine residue at position 376 to arginine in the catalytic site resulting in inactivation of the kinase. […] Transfection efficiency was >75% as determined by immunostaining of V5-expression. […]

fluorescence of TH-ser40 immunostaining versus Lac-Z expressing neurons [3]: about 2.5 times
B1: PKCδ-DN: loss of function PKCδ-V5 epitope tagged mutant protein, lysine 376 to arginine, kinase inactive (protein, UniProt P28867 1-674, looked up, variant K376R)
chain: MAPFLRISFNSYELGSLQVEDEASQPFCAVKMKEALSTERGKTLVQKKPTMYPEWKTTFDAHIYEGRVIQIVLMRAAEDPVSEVTVGVSVLAERCKKNNGKAEFWLDLQPQAKVLMCVQYFLEDGDCKQSMRSEEEAKFPTMNRRGAIKQAKIHYIKNHEFIATFFGQPTFCSVCKEFVWGLNKQGYKCRQCNAAIHKKCIDKIIGRCTGTATNSRDTIFQKERFNIDMPHRFKVYNYMSPTFCDHCGSLLWGLVKQGLKCEDCGMNVHHKCREKVANLCGINQKLLAEALNQVTQRSSRKLDTTESVGIYQGFEKKPEVSGSDILDNNGTYGKIWEGSTRCTLENFTFQKVLGKGSFGKVLLAELKGKDKYFAIRCLKKDVVLIDDDVECTMVEKRVLALAWESPFLTHLICTFQTKDHLFFVMEFLNGGDLMFHIQDKGRFELYRATFYAAEIICGLQFLHSKGIIYRDLKLDNVMLDRDGHIKIADFGMCKENIFGEGRASTFCGTPDYIAPEILQGLKYSFSVDWWSFGVLLYEMLIGQSPFHGDDEDELFESIRVDTPHYPRWITKESKDIMEKLFERDPDKRLGVTGNIRIHPFFKTINWSLLEKRKVEPPFKPKVKSPSDYSNFDPEFLNEKPQLSFSDKNLIDSMDQEAFHGFSFVNPKFEQFLDI
modifications: full-length V5 epitope tag
TH activity [1]: 2539±307.3 pg DOPA/10^6 cells/hr
reduction of PP2A activity (PP2A): 56%
DA level (N27 cells): 4806±373 pg/μg protein
DOPAC levels (N27 cells): 2783±968.31 pg/μg protein
increase in DA level (N27 cells): 4 fold
increase in DOPAC levels (N27 cells): 3 fold
THser31 phosphorylation level ([2]; N27 cells): unaltered
level of total TH ([2]; N27 cells): unaltered
fluorescent intensity of TH-ser40 immunostaining, increase versus Lac-Z ([2]; N27 cells stably expressing PKCδ-DN): 2.5 fold
